# From US20250179176A1, “ANTI-TIGIT ANTIBODIES AND USES OF THE SAME” (ARCUS BIOSCIENCES, INC., priority 2022, published 2025)
# B1: domvanalimab: anti-TIGIT antibody with engineered IgG1 Fc, reduced FcγR binding; heavy chain SEQ ID NO: 12, light chain SEQ ID NO: 13 (antibody)
# heavy: EVQLVESGGGLVQPGGSLRLSCAASGFTFSNFGMHWVRQAPGKGLEWVAFISSGSSSIYYADTVKGRFTISRDNAKNSLYLQMNSLRAEDTAVYYCARMRLDYYAMDYWGQGTMVTVSSASTKGPSVFPLAPSSKSTSGGTAALGCLVKDYFPEPVTVSWNSGALTSGVHTFPAVLQSSGLYSLSSVVTVPSSSLGTQTYICNVNHKPSNTKVDKKVEPKSCDKTHTCPPCPAPEAAGGPSVFLFPPKPKDTLMISRTPEVTCWVDVSHEDPEVKFNWYVDGVEVHNAKTKPREEQYNSTYRWSVLTVLHQDWLNGKEYKCKVSNKALPAPIEKTISKAKGQPREPQVYTLPPSRDELTKNQVSLTCLVKGFYPSDIAVEWESNGQPENNYKTTPPVLDSDGSFFLYSKLTVDKSRWQQGNVFSCSVMHEALHNHYTQKSLSLSPGK
# light: DIQMTQSPSSLSASVGDRVTITCRASKSISKYLAWYQQKPGKAPKLLIYSGSTLQSGVPSRFSGSGSGTDFTLTISSLQPEDFATYYCQQHNEYPWTFGGGTKVEIKRTVAAPSVFIFPPSDEQLKSGTASWCLLNNFYPREAKVQWKVDNALQSGNSQESVTEQDSKDSTYSLSSTLTLSKADYEKHKVYACEVTHQGLSSPVTKSFNRGEC
# Experiments:
# [1] = test system: Jurkat cell line stably overexpressing human TIGIT; test: CDC assay with human complement; format: cell-based; settings: increasing concentrations up to 33 nM
# Protocol: Briefly, 50,000 Jurkat-TIGIT cells in RPMI 1640 medium (Invitrogen) containing 10% fetal bovine serum (FBS) were seeded into a 96-well round bottom plates (Nunc). Test antibodies were added starting at a top concentration of 50 μg/ml followed by a three-fold dilution series and allowed to incubate with cells for 1 hour at 37° C. in a 5% CO2 incubator. After this 1-hour incubation, human complement was added and allowed to incubate for an additional 3 hours at 37° C. in a 5% CO2 incubator. Following the completion of this 3-hour incubation, […] of propidium iodide (ThermoFisher) was added and samples were analyzed by flow cytometry (BD FACSCalibur) to determine the percentages of propidium iodide positivity as a readout for cell death.
# [2] = Population PK model and simulations; design: species or system human
# Protocol: All available PK data from this study were combined in a population PK model. […] The population PK model confirmed that the PK of domvanalimab was dose-linear over the dose range and consistent across the dosing regimens.
# Simulations were run with the model of n=500 patients each at 10 mg/kg Q2W, 15 mg/kg Q3W, and 20 mg/kg Q4W dosing regimens for 24 weeks.
molecule,measurement,setting,value
B1,complement-dependent cytotoxicity,[1],No cytotoxicity
same,terminal half-life,[2]; estimated based on the population PK model,19.9 days
same,volume of distribution,[2]; population PK model,approximated plasma volume
same,dose linearity of PK,"[2]; population PK model, 0.5-20 mg/kg, Q2W, Q3W, Q4W",dose-linear
